# Laboratory results reported in PMC8187598.
# How the values were obtained:
# [1] = target: His-tagged α subunit of acetyl-CoA carboxylase (AccA), biotinylated (Streptomyces hygroscopicus var. ascomyceticus FS35)
# [2] = target: His-tagged α subunit of acetyl-CoA carboxylase (AccA), biotinylated (Streptomyces hygroscopicus var. ascomyceticus FS35); remark: listed apart in the source
binder,measurement,setting,value
"GlnB protein (PII signal transduction protein encoded by gene 1_2537), native (untagged) (natural protein) MSIKAEYIWIDGTQPTAKLRSKTKILSDGSRLPRWGFDGSSTNQAEGHASDLVLEPVFSCPDPIRGGDHLLVLCEVLHTDLTPHPSNTRALLRPVAERFAGQEPIFGIEQEYTFLKGDRPLGFPEGGGYPAPQADYYCGVGADAIFGREIVEKHLDLCLAAGLGLSGINAEVMPGQWEFQVGALPPLEVSDHMWVARWLLHRVAEEFGVTASLDAKPAKGDWNGAGAHTNFSTRAMREGYDPIITACEALGQDDKPLEHVRQYGTGIEDRLTGAHETAPWDAYSYGASDRGASVRIPWQVEVEKKGYIEDRRPNANVDPYVVTRLMVDTCCTELARREQI","maximal calculated inhibition of ACC by GlnB at rising concentrations (from 0 μM, stable above 1.5 μM), without 2-OG",[1],50%
same,"maximal calculated inhibition of PCC by GlnB at rising concentrations (from 0 μM, stable above 1.5 μM), without 2-OG",[1],24.7%
same,"in vitro activity of ACC in the coupled enzyme assay with 5 μM GlnB, against 100% without GlnB",[2],54.2%
same,"in vitro activity of PCC in the coupled enzyme assay with 5 μM GlnB, against 100% without GlnB",[2],76.5%
